Measurements taken from patent publication US20090104196.

Target: AR co-purified in the TAP-LSD1/AR complex (UniProt P10275)
Sequence (P10275 whole entry, one chain of several): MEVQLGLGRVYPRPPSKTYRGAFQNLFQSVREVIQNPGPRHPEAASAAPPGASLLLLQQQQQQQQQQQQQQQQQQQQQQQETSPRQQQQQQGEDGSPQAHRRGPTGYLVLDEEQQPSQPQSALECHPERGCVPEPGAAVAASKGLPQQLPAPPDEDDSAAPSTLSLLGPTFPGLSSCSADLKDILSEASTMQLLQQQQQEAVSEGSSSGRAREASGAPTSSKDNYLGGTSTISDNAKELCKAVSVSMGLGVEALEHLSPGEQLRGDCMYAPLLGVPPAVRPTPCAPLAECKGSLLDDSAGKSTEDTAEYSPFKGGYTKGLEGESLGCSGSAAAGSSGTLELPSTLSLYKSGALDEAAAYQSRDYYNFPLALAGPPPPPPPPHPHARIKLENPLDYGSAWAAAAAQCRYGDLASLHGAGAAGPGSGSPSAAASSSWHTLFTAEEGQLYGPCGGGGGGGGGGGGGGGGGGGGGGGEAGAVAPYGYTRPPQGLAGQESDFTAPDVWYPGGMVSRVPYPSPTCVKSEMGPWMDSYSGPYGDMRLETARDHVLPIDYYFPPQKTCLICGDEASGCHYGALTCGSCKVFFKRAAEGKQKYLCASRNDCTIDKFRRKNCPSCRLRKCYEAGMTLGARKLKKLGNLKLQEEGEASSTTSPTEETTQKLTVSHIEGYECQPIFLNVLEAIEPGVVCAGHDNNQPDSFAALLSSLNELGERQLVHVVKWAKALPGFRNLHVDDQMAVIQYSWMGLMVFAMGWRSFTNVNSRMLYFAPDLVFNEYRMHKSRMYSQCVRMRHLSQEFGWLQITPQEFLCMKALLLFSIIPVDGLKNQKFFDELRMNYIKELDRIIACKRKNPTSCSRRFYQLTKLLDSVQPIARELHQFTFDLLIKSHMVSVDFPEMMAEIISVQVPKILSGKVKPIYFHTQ

Substance: TAP-LSD1 (LSD1 with N-terminal TAP tag), tandem affinity purified
- demethylation of dimethyl H3-K9 on HeLa nucleosomes in vitro (Western blot): The TAP-LSD1/AR complex demethylated dimethyl H3-K9 in vitro, whereas TAP-LSD1 or the TAP control failed to do so
